Test results taken from doi:10.1101/722512 (bioRxiv, 2019).

Biological target: the molecule itself
Assay: native MS

B1: Erwinia ligand-gated ion channel (ELIC), wild type (natural protein)
chain: APADNAADARPVDVSVSIFINKIYGVNTLEQTYKVDGYIVAQWTGKPRKTPGDKPLIVENTQIERWINNGLWVPALEFINVVGSPDTGNKRLMLFPDGRVIYNARFLGSFSNDMDFRLFPFDRQQFVLELEPFSYNNQQLRFSDIQVYTENIDNEEIDEWWIRKASTHISDIRYDHLSSVQPNQNEFSRITVRIDAVRNPSYYLWSFILPLGLIIAASWSVFWLESFSERLQTSFTLMLTVVAYAFYTSNILPRLPYTTVIDQMIIAGYGSIFAAILLIIFAHHRQAMGVEDDLLIQRCRLAFPLGFLAIGCVLVIRGITL
Question: Which “stoichiometry N” value does the source give for B1 here?
Answer: 5
